Source: patent publication US20060246046A1 (published 2006)
Substitutions are numbered along the chain they refer to. Names and notes keep the numbering of the source.

T1: factor XIIIa (human, UniProt P00488 39-732)
T1 sequence (looked up): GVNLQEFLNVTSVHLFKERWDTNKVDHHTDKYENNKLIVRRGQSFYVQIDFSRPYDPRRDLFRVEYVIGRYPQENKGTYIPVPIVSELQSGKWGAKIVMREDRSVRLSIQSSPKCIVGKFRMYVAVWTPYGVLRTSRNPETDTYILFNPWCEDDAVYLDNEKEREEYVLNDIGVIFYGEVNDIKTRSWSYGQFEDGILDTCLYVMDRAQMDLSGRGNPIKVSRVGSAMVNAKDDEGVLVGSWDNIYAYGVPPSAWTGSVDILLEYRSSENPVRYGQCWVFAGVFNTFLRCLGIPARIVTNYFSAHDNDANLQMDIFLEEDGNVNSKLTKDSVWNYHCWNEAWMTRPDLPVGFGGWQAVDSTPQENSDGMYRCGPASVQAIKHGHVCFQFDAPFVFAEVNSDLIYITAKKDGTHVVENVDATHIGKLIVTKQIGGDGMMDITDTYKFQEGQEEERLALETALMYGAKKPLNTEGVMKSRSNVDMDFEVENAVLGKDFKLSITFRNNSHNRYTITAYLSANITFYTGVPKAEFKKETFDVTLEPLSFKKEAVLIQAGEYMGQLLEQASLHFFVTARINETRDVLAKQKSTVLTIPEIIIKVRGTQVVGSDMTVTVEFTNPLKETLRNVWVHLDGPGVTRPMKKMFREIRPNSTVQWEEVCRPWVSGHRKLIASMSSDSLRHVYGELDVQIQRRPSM

B1: modified tridegin Cys variant C18A (protein, not shown: small tags and cut ends)
chain: MKLLPCKEWHQGIPNPRAWCGADLECAQDQYCAFIPQCRPRSELIKPMDDIYQRPVEFPNLPLKPREE
B2: modified tridegin Cys variant C26A; +C38A (protein, not shown: small tags and cut ends)
chain: B1 chain with A18C, C26A, C38A
B3: modified tridegin Cys variant C20A (protein, not shown: small tags and cut ends)
chain: B1 chain with A18C, C20A
B4: modified tridegin Y31A (protein, not shown: small tags and cut ends)
chain: B1 chain with A18C, Y31A
B5: modified tridegin Cys variant C32A (protein, not shown: small tags and cut ends)
chain: B1 chain with A18C, C32A
B6: modified tridegin L24A (protein, not shown: small tags and cut ends)
chain: B1 chain with A18C, L24A
B7: modified tridegin Cys variant C26A (protein, not shown: small tags and cut ends)
chain: B1 chain with A18C, C26A

What follows are binders tested against T1, factor XIIIa (assay: cell-based or functional assay).

Binder | IC50, Berichrom assay, HPLC-purified peptide | IC50, Berichrom test, purified peptide
Ac-DDIYQRPVEFPNLPLKPREE-NH2 [20 amino acid-long tridegin peptide SEQ ID NO.26] | 5 µM | –
DDIYQRPVEFPNLP [DDIYQRPVEFPNLP (SEQ ID No. 88) (14mer)] | – | ~280 µM
MDDIYQRPVEFPNLPL [MDDIYQRPVEFPNLPL (SEQ ID No. 87) (16mer)] | – | 19 µM
Ac-PMDDIYQRPVEFPNLPLKPR-NH2 [20 amino acid-long tridegin peptide SEQ ID NO.25] | 4 µM | –
Ac-IKPMDDIYQRPVEFPNLPLK-NH2 [20 amino acid-long tridegin peptide SEQ ID NO.24] | 7 µM | –

Target: T1, factor XIIIa
Assay: cell-based or functional assay
Remark: another data set of the same source

Binder | Relative inhibitory effect (%) at 5.45 µM, wild type = 100%
B1 | 93%
B2 | 80%
B3 | 63%
B4 | 69%
B5 | 86%
B6 | 92%
B7 | 82%

Target: T1, factor XIIIa
Assay: cell-based or functional assay
Remark: another data set of the same source

Binder | Relative inhibitory effect (%) at 7.27 µM, recombinant tridegin = 100%
Ac-DDIYQRPVEFPNLPLKPREE-NH2 [20 amino acid-long tridegin peptide SEQ ID NO.26] | 35.6%
Ac-PMDDIYQRPVEFPNLPLKPR-NH2 [20 amino acid-long tridegin peptide SEQ ID NO.25] | 42.1%
Ac-IKPMDDIYQRPVEFPNLPLK-NH2 [20 amino acid-long tridegin peptide SEQ ID NO.24] | 43.5%
